Assays:
[1] = molecular target: HLA-A*01:01; experiment: IEDB peptide-MHC binding, purified MHC/competitive/radioactivity; filed as Kd, often an IC50 or EC50 that approximates it; ≥ and ≤ were set here for values at or beyond the usual limits of such assays
[2] = molecular target: HLA-A*26:01; experiment: as above
[3] = molecular target: HLA-A*23:01; experiment: as above
[4] = molecular target: HLA-A*30:02; experiment: as above
[5] = molecular target: HLA-A*24:02; experiment: as above
[6] = molecular target: HLA-A*29:02; experiment: as above
[7] = molecular target: HLA-B*51:01; experiment: as above
[8] = molecular target: HLA-B*53:01; experiment: as above
[9] = molecular target: HLA-B*35:01; experiment: as above
[10] = molecular target: HLA-A*30:01; experiment: as above
[11] = molecular target: HLA-A*31:01; experiment: IEDB peptide-MHC binding, purified MHC/direct/fluorescence; filed as Kd, often an IC50 or EC50 that approximates it; ≥ and ≤ were set here for values at or beyond the usual limits of such assays
[12] = molecular target: HLA-A*03:01; experiment: as above
[13] = molecular target: HLA-A*32:01; experiment: IEDB peptide-MHC binding, purified MHC/competitive/radioactivity; filed as Kd, often an IC50 or EC50 that approximates it; ≥ and ≤ were set here for values at or beyond the usual limits of such assays
[14] = molecular target: HLA-A*11:01; experiment: as above
[15] = molecular target: HLA-A*31:01; experiment: as above
[16] = molecular target: HLA-A*03:01; experiment: as above
[17] = molecular target: HLA-A*33:01; experiment: as above; conditions: source organism: Mammarenavirus machupoense
[18] = molecular target: HLA-A*68:01; experiment: as above
[19] = molecular target: HLA-A*26:01; experiment: IEDB peptide-MHC binding, purified MHC/direct/fluorescence; filed as Kd, often an IC50 or EC50 that approximates it; ≥ and ≤ were set here for values at or beyond the usual limits of such assays; conditions: source organism: West Nile virus
[20] = source organism: SARS coronavirus Tor2
[21] = source organism: Dengue virus 3 Martinique/1243/1999
[22] = source organism: Mammarenavirus guanaritoense
[23] = source organism: Vaccinia virus WR
[24] = source organism: Dengue virus 1 Brazil/97-11/1997
[25] = source organism: Francisella tularensis subsp. tularensis FSC198
[26] = source organism: Dengue virus 2 Jamaica/1409/1983
[27] = source organism: Lymphocytic choriomeningitis virus (strain Armstrong)
[28] = source organism: Mammarenavirus brazilense
[29] = source organism: Mammarenavirus lassaense
[30] = source organism: Mammarenavirus machupoense
[31] = source organism: Dengue virus 4 Philippines/H241/1956
[32] = source organism: Dengue virus 4 Dominica/814669/1981
[33] = source organism: Dengue virus 3 Singapore/8120/1995
[34] = source organism: Vaccinia virus
[35] = source organism: Mammarenavirus juninense
[36] = source organism: Dengue virus 1 Singapore/S275/1990
[37] = source organism: Mammarenavirus whitewaterense

GAEHVDTSY
Kd [1, 20]: 398 nM | Kd [2, 20]: 2450 nM | Kd [3, 20]: ≥ 77800 nM | Kd [4, 20]: 2900 nM | Kd [5, 20]: ≥ 77600 nM | Kd [6, 20]: 722 nM

LPETMETLLL
Kd [7, 21]: 1170 nM | Kd [8, 21]: 24.3 nM | Kd [9, 21]: 1210 nM

LYLYALIYFL
Kd [1, 20]: 4270 nM | Kd [2, 20]: 2460 nM | Kd [3, 20]: 22 nM | Kd [4, 20]: 6960 nM | Kd [5, 20]: 299 nM | Kd [6, 20]: 3000 nM

LWPFIRINNL
Kd [3, 22]: 117 nM | Kd [5, 22]: 453 nM | Kd [6, 22]: 1640 nM

ATARSSPEK
Kd [10, 23]: 0.584 nM

CLRCSKLNL
Kd [10, 23]: 482 nM

HAHWTEAKM
Kd [9, 24]: 285 nM

YAQMWSLMY
Kd [4, 21]: 8.8 nM

SFSSGWSPR
Kd [11, 25]: 3.4 nM | Kd [12, 25]: ≥ 20000 nM

EVEDYGFGVF
Kd [2, 26]: 132 nM | Kd [3, 26]: 1000 nM

FSKSRSTLMY
Kd [1, 27]: 68.5 nM | Kd [13, 27]: ≥ 69900 nM | Kd [2, 27]: 878 nM | Kd [10, 27]: 377 nM | Kd [4, 27]: 993 nM | Kd [6, 27]: 333 nM

RVGLYGLLFY
Kd [1, 22]: 17400 nM | Kd [13, 22]: 2340 nM | Kd [2, 22]: ≥ 69700 nM | Kd [10, 22]: 4050 nM | Kd [4, 22]: 36.6 nM | Kd [6, 22]: 48.4 nM

NYPYLFEEHL
Kd [3, 28]: 824 nM | Kd [5, 28]: 979 nM | Kd [6, 28]: ≥ 71400 nM

SWLITSGFR
Kd ([11]; source organism: Cowpox virus): 1100 nM | Kd ([12]; source organism: Cowpox virus): ≥ 20000 nM

QYNLSHSYAV
Kd [1, 29]: ≥ 70400 nM | Kd [2, 29]: ≥ 69700 nM | Kd [3, 29]: 346 nM | Kd [4, 29]: 3330 nM | Kd [5, 29]: 1950 nM | Kd [6, 29]: 1300 nM

CKSKNPLLY
Kd [1, 20]: ≥ 87700 nM | Kd [2, 20]: ≥ 81500 nM | Kd [3, 20]: ≥ 67600 nM | Kd [4, 20]: 199 nM | Kd [5, 20]: ≥ 77600 nM | Kd [6, 20]: 163 nM

RTAPPSLYGR
Kd [14, 30]: 8.92 nM | Kd [15, 30]: 1.59 nM | Kd [16, 30]: 16.2 nM | Kd [17]: 2390 nM | Kd [18, 30]: 10.2 nM | Kd [10, 30]: 759 nM

KWKRQLNSL
Kd [10, 31]: 290 nM

HLSRTVVYSY
Kd [1, 22]: 1330 nM | Kd [13, 22]: 671 nM | Kd [2, 22]: 10600 nM | Kd [10, 22]: 525 nM | Kd [4, 22]: 63.8 nM | Kd [6, 22]: 1210 nM

AIKVLKGFK
Kd [16, 21]: 157 nM | Kd [10, 21]: 1390 nM

ALLATSIFK
Kd [14, 24]: 23.4 nM | Kd [16, 24]: 4.12 nM | Kd [10, 24]: 544 nM

IPHDLMELI
Kd [7, 32]: 16.8 nM | Kd [8, 32]: 6.5 nM

RTRYLPSLV
Kd ([10]; source organism: Vaccinia virus Copenhagen): 0.485 nM

AYMLFTKFFY
Kd [1, 20]: 339 nM | Kd [2, 20]: 83.5 nM | Kd [3, 20]: 0.115 nM | Kd [5, 20]: 0.241 nM | Kd [6, 20]: 0.00115 nM

CYSQVNPTTL
Kd [3, 31]: 1330 nM | Kd [5, 31]: 326 nM

KVKYEGAGA
Kd [10, 31]: 123 nM

LVKLHSGKDV
Kd [10, 24]: 5940 nM

KVVRVQRPTP
Kd [10, 26]: 122 nM

KLRCRNTEA
Kd [10, 23]: 14.2 nM

LPEYGTLGLE
Kd [9, 21]: 4480 nM

KQWFLDLPLP
Kd [10, 24]: 9590 nM

DPRRCMKPVI
Kd [7, 26]: 9650 nM

DVFFTPPEK
Kd [18, 26]: 3.59 nM | Kd [10, 26]: 1300 nM

LMKITAEWLW
Kd [8, 26]: 1410 nM

AWNIWEVEDY
Kd [4, 24]: 1880 nM

LPLPWAAGAD
Kd [7, 31]: ≥ 22900 nM | Kd [9, 31]: 4140 nM

KCYGVSATK
Kd ([11]; source organism: SARS-CoV1): 3520 nM

HTNEDDSNF
Kd [19]: 1900 nM

LWMADVPLQW
Kd [3, 33]: 39.7 nM | Kd [5, 33]: 24.3 nM

MALIVSIFK
Kd [10, 34]: 896 nM

SYKVASEGF
Kd [3, 24]: 626 nM | Kd [5, 24]: 209 nM

VAHSSLYGRY
Kd [1, 35]: 5800 nM | Kd [13, 35]: ≥ 69900 nM | Kd [2, 35]: 11700 nM | Kd [10, 35]: 8960 nM | Kd [4, 35]: 5.86 nM | Kd [6, 35]: 349 nM

KTKIDIIFA
Kd [10, 34]: 10 nM

GSKASCVLK
Kd [10, 23]: 265 nM

FKPGTSGSPI
Kd [7, 24]: 5750 nM

AVPVHWVPTS
Kd [10, 21]: 10500 nM

KALKINWYK
Kd [14, 33]: 81.7 nM | Kd [15, 33]: 0.11 nM | Kd [16, 33]: 84.1 nM | Kd [10, 33]: 360 nM

IAVGMVTLY
Kd [9, 24]: 13.5 nM

TGFDWITDY
Kd [4, 31]: 1600 nM

EALSGFLQY
Kd [1, 35]: 11600 nM | Kd [13, 35]: ≥ 77800 nM | Kd [2, 35]: 1490 nM | Kd [10, 35]: ≥ 43100 nM | Kd [4, 35]: 3950 nM | Kd [6, 35]: 778 nM

PFGDSYIII
Kd [3, 26]: 3960 nM

LPVLLGSLGC
Kd [7, 36]: ≥ 20100 nM | Kd [8, 36]: 199 nM | Kd [9, 36]: 2030 nM

QRKKTGKPSI
Kd [10, 21]: 1150 nM

ITVIDLEPIS
Kd [10, 31]: 105 nM

MPPLRFLGED
Kd [9, 31]: 15200 nM

ATGTDMPGGY
Kd [1, 37]: 33 nM | Kd [13, 37]: ≥ 69900 nM | Kd [2, 37]: ≥ 69700 nM | Kd [10, 37]: ≥ 63600 nM | Kd [4, 37]: 531 nM | Kd [6, 37]: 8850 nM
